Key:
[1] = tested on: hyperinsulinemic hypoglycemia; details: meta-analysis of six cohorts (1142 subjects); cited from earlier work
From the text: Diazoxide, a first-line therapy, is a nondiuretic benzothiadizine originally formulated as a peripheral vasodilator for the treatment of hypertension. […] Octreotide—a synthetic peptide analog of somatostatin—has been frequently used as a second-line therapy to treat patients with CHI who are not res ...

[2] = molecular target: T1, FcγRIIIA (Homo sapiens, UniProt P08637); assay: FcγRIIIA binding by SPR; details: SPR BIACORE T200, 25 °C, steady-state affinity fit; read-out: Binding affinities (KD) FcγRIIIA
T1 construct: purchased
T1 sequence (P08637 17-254): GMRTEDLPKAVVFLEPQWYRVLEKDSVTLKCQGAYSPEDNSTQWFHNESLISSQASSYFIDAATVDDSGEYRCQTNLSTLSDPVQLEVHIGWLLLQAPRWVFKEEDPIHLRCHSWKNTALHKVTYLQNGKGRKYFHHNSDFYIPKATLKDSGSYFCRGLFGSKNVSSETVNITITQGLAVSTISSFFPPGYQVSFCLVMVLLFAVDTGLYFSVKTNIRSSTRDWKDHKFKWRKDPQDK
Description: (§1) All experiments were carried out on a BIACORE T200 instrument (GE Healthcare, USA) at 25 °C. Amine coupling chemistry was used to immobilize FcγRs on the surface of a CM5 sensor chip. For activation, a mixture of NHS and EDC solution was injected onto a CM5 sensor chip for 7 min at a flow rate of 10 μL/min. FcγRIA, FcγRIIA, FcγRIIB/C, FcγRIIIA, and FcγRIIIB were immobilized on CM5 chips by injecting 5 μg/mL of FcγRIA, 10 μg/mL of FcγRIIA, 2 μg/mL of FcγRIIIA, 10 μg/mL of FcγRIIIB, and 10 μg/mL of FcγRIIB/C diluted with 10 mM sodium acetate (pH 4.5) onto CM5 chips at a flow rate of 5 μL/min. The target RU was 1500 RU for FcγRIA and FcγRIIA, 3,000 RU for FcγRIIB/C and FcγRIIIB, and 1,000 RU for FcγRIIIA. To deactivate unreacted moieties, the chip surface was blocked with 1 M ethanolamine/HCl (pH 8.5) for 7 min at a flow rate of […]. HMC001 and I.V.-Globulin SN were diluted with running buffer to 500, 250, 125, 62.5, and 31.25 nM. HM15136 was diluted with running buffer to 486, 243, 121.5, 60.75, and 30.38 nM. The test materials were injected for 10 min (for Fc immobilized with FcγRIA and FcγRIIA) or 15 min (for Fc immobilized with FcγRIIIA, FcγRIIIB, and FcγRIIB/C) for association, followed by 10 min-dissociation at 20 μL/min. Binding affinity was evaluated with a steady-state affinity fitting model in BIACORE T200 Evaluation Software version 3.0. […]

[3] = molecular target: human C1q (Homo sapiens, UniProt P02745+P02746+P02747); assay: C1q binding by SPR; details: SPR BIACORE T200, test material immobilized, steady-state affinity fit; read-out: Binding affinities (KD) C1q
human C1q, sequence (P02745 23-245): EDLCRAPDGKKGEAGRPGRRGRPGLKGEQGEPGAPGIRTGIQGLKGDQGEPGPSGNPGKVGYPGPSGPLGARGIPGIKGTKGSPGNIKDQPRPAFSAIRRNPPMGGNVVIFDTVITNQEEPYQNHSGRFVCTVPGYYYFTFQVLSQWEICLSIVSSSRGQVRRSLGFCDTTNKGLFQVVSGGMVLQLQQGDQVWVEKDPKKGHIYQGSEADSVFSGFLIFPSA
human C1q, sequence (P02746 28-253): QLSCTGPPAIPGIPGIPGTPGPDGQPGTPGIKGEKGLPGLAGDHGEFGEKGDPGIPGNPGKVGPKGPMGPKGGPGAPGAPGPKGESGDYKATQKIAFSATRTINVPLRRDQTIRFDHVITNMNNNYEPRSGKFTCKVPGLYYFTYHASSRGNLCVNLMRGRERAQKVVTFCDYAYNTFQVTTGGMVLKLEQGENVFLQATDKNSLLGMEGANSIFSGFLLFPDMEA
human C1q, sequence (P02747 29-245): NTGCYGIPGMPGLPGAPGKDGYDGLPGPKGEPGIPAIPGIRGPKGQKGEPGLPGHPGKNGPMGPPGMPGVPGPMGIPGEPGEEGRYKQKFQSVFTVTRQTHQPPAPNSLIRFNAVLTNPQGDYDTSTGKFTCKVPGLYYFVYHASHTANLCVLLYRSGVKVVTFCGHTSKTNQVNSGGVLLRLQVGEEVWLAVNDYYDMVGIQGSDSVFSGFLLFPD
Description: The target immobilization of the three materials was 3000 RU. To stabilize the sensor chip, running buffer (HBS-EP) was injected for 10 min, followed by 10 min dissociation at 25 μL/min before test material injection. Then, regeneration buffer was injected for 30 s at 25 μL/min; this step was repeated three times. C1q was diluted with running buffer to 50, 25, 12.5, 6.25, and 3.125 nM and injected for 6 min for association, followed by 10-min dissociation at 25 μL/min. The remaining C1q was regenerated with regeneration buffer for 30 s at 25 μL/min; this step was repeated three times. Binding affinity was evaluated with a steady-state affinity fitting model in BIACORE T200 Evaluation Software version 3.0. Blank-subtracted sensograms (RU form reference channel and blank were subtracted) were used for evaluation.

[4] = molecular target: T2, FcγRIIB/C (Homo sapiens, UniProt P31994); assay: FcγRIIB/C binding by SPR; details: SPR BIACORE T200, 25 °C, steady-state affinity fit; read-out: Binding affinities (KD) FcγRIIB/C
T2 construct: purchased
T2 sequence (P31994 43-310): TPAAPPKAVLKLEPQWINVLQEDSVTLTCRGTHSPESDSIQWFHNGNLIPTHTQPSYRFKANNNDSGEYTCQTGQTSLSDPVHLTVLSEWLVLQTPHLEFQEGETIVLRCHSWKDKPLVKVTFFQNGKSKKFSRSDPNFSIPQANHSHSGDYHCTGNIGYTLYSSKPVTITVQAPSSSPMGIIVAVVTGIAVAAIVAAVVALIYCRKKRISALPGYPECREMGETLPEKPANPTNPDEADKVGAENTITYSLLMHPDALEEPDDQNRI
Description: All experiments were carried out on a BIACORE T200 instrument (GE Healthcare, USA) at 25 °C. Amine coupling chemistry was used to immobilize FcγRs on the surface of a CM5 sensor chip. For activation, a mixture of NHS and EDC solution was injected onto a CM5 sensor chip for 7 min at a flow rate of 10 μL/min. FcγRIA, FcγRIIA, FcγRIIB/C, FcγRIIIA, and FcγRIIIB were immobilized on CM5 chips by injecting 5 μg/mL of FcγRIA, 10 μg/mL of FcγRIIA, 2 μg/mL of FcγRIIIA, 10 μg/mL of FcγRIIIB, and 10 μg/mL of FcγRIIB/C diluted with 10 mM sodium acetate (pH 4.5) onto CM5 chips at a flow rate of 5 μL/min. The target RU was 1500 RU for FcγRIA and FcγRIIA, 3,000 RU for FcγRIIB/C and FcγRIIIB, and 1,000 RU for FcγRIIIA. To deactivate unreacted moieties, the chip surface was blocked with 1 M ethanolamine/HCl (pH 8.5) for 7 min at a flow rate of 10 L/min. […] The test materials were injected for 10 min (for Fc immobilized with FcγRIA and FcγRIIA) or 15 min (for Fc immobilized with FcγRIIIA, FcγRIIIB, and FcγRIIB/C) for association, followed by 10 min-dissociation at 20 μL/min. Binding affinity was evaluated with a steady-state affinity fitting model in BIACORE T200 Evaluation Software version 3.0. Blank-subtracted sensograms (RU form reference channel and blanks were subtracted) were used for evaluation.

[5] = molecular target: T3, FcγRIA (Homo sapiens, UniProt P12314); assay: FcγRIA binding by SPR; details: SPR BIACORE T200, 25 °C, steady-state affinity fit; read-out: Binding affinities (KD) FcγRIA
T3 construct: purchased
T3 sequence (P12314 16-374): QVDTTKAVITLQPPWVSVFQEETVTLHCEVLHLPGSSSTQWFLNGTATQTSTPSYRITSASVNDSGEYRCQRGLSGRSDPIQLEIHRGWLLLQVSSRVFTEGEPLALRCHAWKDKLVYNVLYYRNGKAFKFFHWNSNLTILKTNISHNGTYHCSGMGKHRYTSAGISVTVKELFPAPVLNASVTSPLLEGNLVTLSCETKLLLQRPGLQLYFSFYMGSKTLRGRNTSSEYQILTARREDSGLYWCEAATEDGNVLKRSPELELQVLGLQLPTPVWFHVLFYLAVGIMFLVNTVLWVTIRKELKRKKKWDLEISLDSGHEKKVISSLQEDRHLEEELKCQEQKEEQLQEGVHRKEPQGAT
Description: as §1

[6] = molecular target: T4, FcγRIIA (Homo sapiens, UniProt P12318); assay: FcγRIIA binding by SPR; details: SPR BIACORE T200, 25 °C, steady-state affinity fit; read-out: Binding affinities (KD) FcγRIIA
T4 construct: purchased
T4 sequence (P12318 34-317): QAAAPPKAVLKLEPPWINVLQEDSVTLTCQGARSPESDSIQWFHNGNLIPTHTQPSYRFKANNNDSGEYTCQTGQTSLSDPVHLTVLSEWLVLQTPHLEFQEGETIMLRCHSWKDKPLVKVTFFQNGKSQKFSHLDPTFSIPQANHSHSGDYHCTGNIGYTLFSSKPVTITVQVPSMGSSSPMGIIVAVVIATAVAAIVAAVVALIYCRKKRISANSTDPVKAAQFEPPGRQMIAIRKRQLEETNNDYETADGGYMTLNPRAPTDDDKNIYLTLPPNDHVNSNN
Description: as §1

[7] = molecular target: T5, FcγRIIIB (Homo sapiens, UniProt O75015); assay: FcγRIIIB binding by SPR; details: SPR BIACORE T200, 25 °C, steady-state affinity fit; read-out: Binding affinities (KD) FcγRIIIB
T5 construct: purchased
T5 sequence (O75015 17-233): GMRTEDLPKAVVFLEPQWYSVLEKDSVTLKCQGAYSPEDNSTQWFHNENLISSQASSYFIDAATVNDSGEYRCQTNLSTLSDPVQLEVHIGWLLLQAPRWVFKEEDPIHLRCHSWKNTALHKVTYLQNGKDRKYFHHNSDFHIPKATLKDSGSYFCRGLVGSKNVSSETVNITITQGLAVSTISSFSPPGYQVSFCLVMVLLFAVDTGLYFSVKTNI
Description: as §1

Compound | response rate [1] [%] | Kd [2] [nM] | Kd [3] [nM] | Kd [4] [nM] | Kd [5] [nM] | Kd [6] [nM] | Kd [7] [nM]
CC1=NS(=O)(=O)c2cc(Cl)ccc2N1 [diazoxide, Diazoxide] | 71 |  |  |  |  |  | 
HMC001: Fc fragment of human immunoglobulin G4, derived from Escherichia coli, lacks glycosylation |  | > 500 | > 500 | > 500 | > 500 | > 500 | > 500

Source: article PMC9537296 (Scientific Reports, 2022)
